# T1: APG30130-L32-nAPG07433.1 (synthetic)
# T1 chain: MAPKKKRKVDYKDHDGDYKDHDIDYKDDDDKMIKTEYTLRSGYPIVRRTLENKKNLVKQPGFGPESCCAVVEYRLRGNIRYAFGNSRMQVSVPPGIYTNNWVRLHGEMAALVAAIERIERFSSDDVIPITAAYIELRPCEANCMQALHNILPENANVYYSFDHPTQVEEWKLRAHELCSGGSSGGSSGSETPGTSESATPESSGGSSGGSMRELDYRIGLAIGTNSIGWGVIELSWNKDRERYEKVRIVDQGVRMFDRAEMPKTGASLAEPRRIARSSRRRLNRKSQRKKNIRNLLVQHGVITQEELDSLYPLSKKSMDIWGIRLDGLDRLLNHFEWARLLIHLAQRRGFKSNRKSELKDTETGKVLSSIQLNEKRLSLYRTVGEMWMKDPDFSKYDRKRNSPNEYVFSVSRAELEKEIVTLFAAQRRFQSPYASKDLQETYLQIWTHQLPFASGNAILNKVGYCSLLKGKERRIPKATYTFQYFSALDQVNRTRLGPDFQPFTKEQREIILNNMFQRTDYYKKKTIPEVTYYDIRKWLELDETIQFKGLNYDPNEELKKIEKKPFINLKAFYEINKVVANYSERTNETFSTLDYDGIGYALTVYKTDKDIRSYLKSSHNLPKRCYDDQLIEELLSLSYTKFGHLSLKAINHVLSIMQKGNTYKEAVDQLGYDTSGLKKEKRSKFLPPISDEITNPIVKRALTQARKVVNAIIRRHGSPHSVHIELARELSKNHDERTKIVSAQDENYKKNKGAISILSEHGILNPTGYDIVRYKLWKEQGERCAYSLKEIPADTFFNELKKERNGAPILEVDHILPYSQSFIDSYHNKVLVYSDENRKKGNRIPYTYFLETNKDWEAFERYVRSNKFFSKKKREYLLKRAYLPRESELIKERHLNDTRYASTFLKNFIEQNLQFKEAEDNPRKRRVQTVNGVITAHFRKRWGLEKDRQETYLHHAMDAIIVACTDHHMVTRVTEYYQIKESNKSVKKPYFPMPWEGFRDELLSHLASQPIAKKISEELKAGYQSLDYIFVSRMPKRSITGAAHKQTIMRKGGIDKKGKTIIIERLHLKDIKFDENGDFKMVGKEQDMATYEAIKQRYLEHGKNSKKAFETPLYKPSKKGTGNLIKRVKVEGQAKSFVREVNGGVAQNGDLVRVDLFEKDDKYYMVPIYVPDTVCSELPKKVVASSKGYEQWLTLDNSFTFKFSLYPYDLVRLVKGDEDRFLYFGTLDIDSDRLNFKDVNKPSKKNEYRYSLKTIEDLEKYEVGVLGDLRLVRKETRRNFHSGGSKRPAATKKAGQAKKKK
# Molecular target: T1, APG30130-L32-nAPG07433.1
# Experiment: cell_activity; HEK293FT; PAM SEQ 152
# Conditions: tags: SV40 NLS, 3xFLAG N-term; nucleoplasmin NLS C-term
# Outline: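 Editing read out by next-generation sequencing (MiSeq 2×250) of PCR amplicons spanning the target site, analysed for INDELs or % cytosine conversion per position (position 1 nearest PAM).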
binder,measurement,value
SGN000930 sgRNA ; SGN000930 target (ssRNA ; dsDNA) RNA: GAACAACUCAAAUGGAAAUGAAUAUGUCAUAGUUCCAUGAAAGCCAAAAGUGGCUUUGAUGUUUCUAUGAUAAGGGUUUCGGCCCGUGGCGUCGGGGAUCGCCUGCCCAUUCCGAUGGGCUUCUCCCCAUUUAUU DNA 1: GAACAACTCAAATGGAAATGAATAT DNA 2: ATATTCATTTCCATTTGAGTTGTTC,activity,3.14 % mutated reads
SGN000194 sgRNA ; SGN000194 target (ssRNA ; dsDNA) RNA: GCCGCACAGCAUUCAGGUCGGUCAUAGUUCCAUUAAAGCCAAAAGUGGCUUUGAUGUUUCUAUGAUAAGGGUUUCGACCCGUGGCGUCGGGGAUCGCCUGCCCAUUGAAAUGGGCUUCUCCCCAUUUAUU DNA 1: GCCGCACAGCATTCAGGTCG DNA 2: CGACCTGAATGCTGTGCGGC,activity,3.29 % mutated reads

# Reference: US20240301385, “DNA MODIFYING ENZYMES AND ACTIVE FRAGMENTS AND VARIANTS THEREOF AND METHODS OF USE” (LIFEEDIT THERAPEUTICS, INC., published 2024)
